For three molecules, Kd results are on record in article PMC6625990 (2019).

No end group written: not given here. *: point of attachment. Biotin = O=C1N[C@H]2[C@H](CS[C@H]2CCCCC(=O)*)N1

The target of this test is T1, bovine Ric8A1–492 (bovine, UniProt Q5E9J8 1-492).
T1 chain: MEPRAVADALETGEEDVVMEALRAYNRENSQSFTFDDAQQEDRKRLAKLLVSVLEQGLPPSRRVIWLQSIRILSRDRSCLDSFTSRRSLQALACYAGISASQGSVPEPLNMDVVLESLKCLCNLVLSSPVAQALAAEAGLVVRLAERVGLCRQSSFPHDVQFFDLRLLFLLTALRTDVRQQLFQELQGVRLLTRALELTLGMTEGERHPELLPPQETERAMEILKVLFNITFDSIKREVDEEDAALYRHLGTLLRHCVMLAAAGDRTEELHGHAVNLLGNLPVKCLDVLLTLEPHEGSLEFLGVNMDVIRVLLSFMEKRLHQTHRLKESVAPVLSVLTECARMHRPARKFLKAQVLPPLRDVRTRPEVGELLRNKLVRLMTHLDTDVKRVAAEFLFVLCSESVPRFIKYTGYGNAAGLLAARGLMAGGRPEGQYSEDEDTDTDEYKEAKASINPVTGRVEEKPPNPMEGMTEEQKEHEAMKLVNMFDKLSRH
Put plainly: BLI. For orientation: In BLI a coated tip is dipped into the sample, and binding shifts an interference pattern.
For the molecule Biotin-NDCRDIIIRMNLRQCGLF (cysteine pairing not given here) [peptide C2], the Kd – broadly, a measure of binding affinity in units of concentration – amounted to 0.063 µM. For Biotin-NDCRDIIQRMHLRQYELL [Gαs363–380], the Kd stood at 4.4 µM. With Biotin-NDCRDIIQRMHLRQCGLF (cysteine pairing not given here) [peptide C1] the figure was 4.7 µM.
